Results published in US20190359687A1 (Bayer, published 2019).
Residue numbers refer to the chain shown, from its start. In names and notes the source's numbering stands. Values belong to the binder of their own block, whether it stands above or below them.

What was measured:
[1] = molecular target: T1, human glycophorin A on human red blood cells or red blood cell membranes (human, UniProt P02724 20-150); assay: SPR (Biacore), Fab on human RBC membranes; T½ = 0.69/kd; * not accurate
T1 construct: whole, on cells; also called hRBC; human RBC membranes
T1 sequence (looked up): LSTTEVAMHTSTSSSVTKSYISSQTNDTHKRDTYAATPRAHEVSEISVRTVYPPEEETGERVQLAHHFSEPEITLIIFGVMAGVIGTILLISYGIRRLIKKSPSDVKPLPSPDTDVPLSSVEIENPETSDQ
Protocol: (§1) Kinetic analysis of the antibody binding to human red blood cell membranes was also performed using surface plasmon resonance (SPR) using a Biacore instrument. In this assay membranes prepared from human red blood cells were attached to a L1 sensor matrix and antibodies were flowed over the RBC membranes.
(§2) The binding kinetics of the affinity matured Fab antibodies was also measured.

[2] = molecular target: T2, Cynomolgus monkey glycophorin A on Cynomolgus monkey red blood cells or red blood cell membranes (Cynomolgus monkey); assay: Fab on intact cyno RBC, unbound Fab by ELISA; 0 min after 200-fold dilution
T2 construct: whole, on cells; also called Cyno RBC; Cynomolgus monkey RBC membranes
Protocol: (§3) The binding of affinity matured Fab antibodies to intact Cynomolgus monkey RBC was measured. Cynomolgus monkey RBC were isolated from fresh anti-coagulated blood by centrifugation through a ficol gradient and washing in PBS buffer. RBC diluted to 1/10th of normal hematocrit were incubated with the Fab at a final concentration of 7 ug/ml for 1 hour at room temperature on a rotating shaker after which a sample was taken and the RBC were pelleted by centrifugation and the supernatant was collected. The remaining RBC suspension was diluted 200-fold in PBS buffer and incubated for a total of 2 hours at room temperature on a rotating shaker and samples were removed at 0, 5 min, 20 min, 1 h and 2 h and the RBC pelleted and the supernatant collected. […] The amount of Fab in the supernatants was then measured using an ELISA assay and the results used to calculate the percentage of the input Fab that was bound to the RBC.

[3] = molecular target: T2, Cynomolgus monkey glycophorin A on …; assay: Fab on intact cyno RBC, unbound Fab by ELISA; 20 min after 200-fold dilution
Protocol: as §3

[4] = molecular target: T2, Cynomolgus monkey glycophorin A on …; assay: Fab on intact cyno RBC, unbound Fab by ELISA; 5 min after 200-fold dilution
Protocol: as §3

[5] = molecular target: T1, human glycophorin A on human red blood …; assay: Fab on intact human RBC, unbound Fab by ELISA; 0 min after 200-fold dilution
[6] = molecular target: T1, human glycophorin A on human red blood …; assay: Fab on intact human RBC, unbound Fab by ELISA; 60 min after 200-fold dilution
[7] = molecular target: T2, Cynomolgus monkey glycophorin A on …; assay: Fab on intact cyno RBC, unbound Fab by ELISA; 120 min after 200-fold dilution
Protocol: as §3

[8] = molecular target: T1, human glycophorin A on human red blood …; assay: SPR (Biacore), Fab on human RBC membranes; * not accurate, instrument limit
Protocol: as §1, §2

[9] = molecular target: T2, Cynomolgus monkey glycophorin A on …; assay: Fab on intact cyno RBC, unbound Fab by ELISA; 60 min after 200-fold dilution
[10] = molecular target: T2, Cynomolgus monkey glycophorin A on …; assay: Fab 7 ug/ml on intact cyno RBC, unbound Fab by ELISA; pre-dilution
Protocol: as §3

[11] = molecular target: T1, human glycophorin A on human red blood …; assay: SPR (Biacore), Fab over human RBC membranes, 1:1 fit; * slight deviation possible
Protocol: as §1

[12] = molecular target: T3, native human glycophorin A protein (human, UniProt P02724 20-150); assay: ELISA, Fab on coated native human GPA
T3 construct: mature; also called Hu-nat GPA
T3 sequence (looked up): T1 sequence (looked up)

[13] = molecular target: T2, Cynomolgus monkey glycophorin A on …; assay: ELISA, Fab on coated cyno RBC membranes
[14] = molecular target: T1, human glycophorin A on human red blood …; assay: ELISA, Fab on coated human RBC membranes
[15] = molecular target: T4, recombinant human glycophorin A ectodomain protein (human, UniProt P02724 20-91); assay: ELISA, Fab on coated recombinant human GPA ectodomain
T4 construct: 72 amino acids of the extracellular region; also called Hu-rec GPA
T4 sequence: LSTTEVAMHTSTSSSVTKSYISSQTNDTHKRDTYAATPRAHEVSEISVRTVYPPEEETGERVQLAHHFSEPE

[16] = molecular target: T5, Cynomolgus monkey recombinant glycophorin A ectodomain (Cynomolgus monkey); assay: ELISA, Fab on coated recombinant cyno GPA ectodomain
T5 construct: extracellular domain

[17] = molecular target: T1, human glycophorin A on human red blood …; assay: SPR (Biacore), Fab on human RBC membranes; T½ = 0.69/kd
Protocol: as §1, §2

- Estimated T½ [1]: 596 days
- percentage of input antibody bound [2]: 87%
- percentage of input antibody bound [3]: 90%
- percentage of input antibody bound [4]: 90%
- percentage of input antibody bound [5]: 88%
- percentage of input antibody bound [6]: 87%
- percentage of input antibody bound [7]: 85%
- Kd [8]: < 2.33 pM
- koff [8]: < 2e-05 s⁻¹
- percentage of input antibody bound [9]: 87%
- percentage of input antibody bound [10]: 94%
B1: TPP-7790, affinity matured 6C12 Fab (Fab, V domains shown)
VH: EVQLVQSGAEVKKPGASVKVSCKASGYTFTTYAIHWVRQAPGQGLEWMGYINPSSGYTRYNPKFKHRVTMTRDKSTSTAYMELRSLRSDDTAVYYCWTGTRDYWGQGTTVTVSS
VL: DIQLTQSPSFLSASVGDRVTITCRASSSVRYIYWFQQKPGKAPKLLIYATSFLQSGVPSRFSGSGSGTEYTLTISSLQPEDFATYYCHQRNSFPYTFGQGTKLEIK
notes: Tested as Fab with a 6xHIS tag

- Kd [11]: 900 pM
- koff [11]: 0.0034 s⁻¹
- kon [11]: 4e+06 M⁻¹ s⁻¹
- binding in ELISA relative to parental Fab [12]: 12.9 relative to parental Fab
- binding in ELISA relative to parental Fab [13]: 2.5 relative to parental Fab
- binding in ELISA relative to parental Fab [14]: 93.5 relative to parental Fab
- binding in ELISA relative to parental Fab [15]: 7.2 relative to parental Fab
- binding in ELISA relative to parental Fab [16]: 1.4 relative to parental Fab
- percentage of input antibody bound [5]: 82%
- percentage of input antibody bound [6]: 8%
- Estimated T½ [17]: 0.00139 days
B2: TPP-5906, humanized and germlined 6C12 Fab; VL: (S24R, A26S, S49A, P54Q, F95Y); VH: (I48M, D56G, D66G, L70M, T72R) (Fab, V domains shown)
VH: B1 VH with A33T, H66G, W97Q
VL: DIQLTQSPSFLSASVGDRVTITCRASSSVSYIYWFQQKPGKAPKLLIYATSTLQSGVPSRFSGSGSGTEYTLTISSLQPEDFATYYCHQRNSFPYTFGQGTKLEIKR
notes: The text says that a 6xHIS tag is present on the Fabs in the peptide ELISA; it is not in the printed chains
